Test results reported in the nanobody polyreactivity screen of Harvey et al. (2022).

Test: yeast display, Sf9 membrane polyspecificity reagent, FACS + sequencing; frameworks hold sequencing errors
How it was run: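 Nanobodies from a synthetic yeast display library (Saccharomyces cerevisiae BJ5465), induced 36–48 hours with galactose, were stained 1 hour at 4 °C with 10% biotinylated, detergent-solubilized Sf9 membrane reagent, enriched on streptavidin microbeads, then FACS-sorted. Anti-HA (expression) and streptavidin (reagent binding) fluorescence set low and high (top ~1%) gates. Polyreactivity labels come from the gate of origin. Genes were colony-PCR amplified, MiSeq 2 × 250 sequenced and filtered by CDR length.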

QVQLVESGGGLVQAGGSLRLSCAASGIILYVNAMGWYRQAPGKEREFVAAISWGGGSTYYADSVKGRFTISRDNAKNTVYLQMNSLKPEDTAVYYCAAEFWSGYPTYTYDYWGQGTQVTVSS
polyreactivity (PSR sort gate): low polyreactivity

QVQLVESGGGLVQAGGSLRLSCAASGIILYVNAMGWYRQAPGKERELVAAISWGGGSTYYADSVKGRFTISRDNAKNTVYLQMNSLKPEDTAVYYCAAEFWSGYPTYTYDYWGQGTQVTVSS
polyreactivity (PSR sort gate): low polyreactivity

QVQLVESGGGLVQAGGSLRLSCAASGIIPSYAMGWYRQAPGKERELVAGISRSGGSTYYADSVKGRFTISRDNAKNTVYLQMNSLKPEDTAVYYCAARVKVRDFKGYYWGQGTQVTVSS
polyreactivity (PSR sort gate): high polyreactivity

QVQLVESGGGLVQAGGSLRLSCAASGIISGDYALGWYRQAPGKERELVARITSGDSTNYADSVKGRFTISRDNAKNTVYLQMNSLKPEDTAVYYCAADRVWAYWTYGYWGQGTQVTVSS
polyreactivity (PSR sort gate): low polyreactivity

QVQLVESGGGLVQAGGSLRLSCAASGIISGDYAMAWYRQAHGKERELVARITSGDSTNYADSVKGRFTISRDNAKNTVYLQMNSLKPEDTAVYYCAADRVWAYWTYGYWGQGTQVTVSS
polyreactivity (PSR sort gate): low polyreactivity

QVQLVESGGGLVQAGGSLRLSCAASGIISIFNVMGWYRQAPGKERELVASITGRGGSTFYADSVKGRFTISRDNAKNTVYLQMNSLKPEDTAVYYCATDTGYTYPVTGLYDYWGQGTQVTVSS
polyreactivity (PSR sort gate): low polyreactivity

QVQLVESGGGLVQAGGSLRLSCAASGIIVEYYTMGWKRQAPGKERELVASITYDGDTTYYADSVKGRFTISRDNAKITVYLQMNSRKPEDTAVYYCAADYYYVYSSFGHYYWGQGTQVTVSS
polyreactivity (PSR sort gate): low polyreactivity

QVQLVESGGGLVQAGGSLRLSCAASGIIVPNAMGWYRQAPGKERELVAVITSGGSTYYADSVKGRFTISRDNAKNTVSLQMNSLKPEDTAVYYCNKDYAAIDRYDSWGQGTQVTVSS
polyreactivity (PSR sort gate): low polyreactivity

QVQLVESGGGLVQAGGSLRLSCAASGIIVPNAMGWYRQAPGKERELVAVITSGGSTYYADSVKGRFTISRDNAKNTVYLQMNSLKPEDTAVYYCNKDYAAIDRYDSWGQGTQVTVSS
polyreactivity (PSR sort gate): low polyreactivity

QVQLVESGGGLVQAGGSLRLSCAASGIIWYYAMGWYRQAPGKERELVAAISWSSGSTYYADSVKGRFTISRDNAKNTVYLQMNSLKPEDSAVYYCAADVYLVKYDYWGQGTQVTVSS
polyreactivity (PSR sort gate): high polyreactivity

QVQLVESGGGLVQAGGSLRLSCAASGINFAYNAMGWYRQAPGKERELVATITDSGGSTSYADSVKGRFTISRDNAKNTVYLQMNSLKPEDTAVYYCAVLPVYWYWRNYVYLSGYDYWGQGTQVTVSS
polyreactivity (PSR sort gate): low polyreactivity

QVQLVESGGGLVQAGGSLRLSCAASGINFDDNAMGWYRQAPGKERELVATISDGGRTYYADSVKGRFTISRDNAKNTVYLQMNSQKPEDTAVYYCADRLWWPYSPAWAKMDYGGQGTQVTVSS
polyreactivity (PSR sort gate): low polyreactivity

QVQLVESGGGLVQAGGSLRLSCAASGINFDTNAIGWYRQAPGKERELVATITQRGGTTYYADSVKGRFTISRDNAKNTVYLQMNSLKPEDTAVYYCNAGPVGLPYDSWGQGTQVTVSS
polyreactivity (PSR sort gate): low polyreactivity

QVQLVESGGGLVQAGGSLRLSCAASGINFFGKYAMGWYRQAPGKERELVAAISWSGGRTYYADSVKWRFTISRDNAKNTVYLQMNSLKPEDTAVYYCAVYPRDAERYGYCGQGTQVTVSS
polyreactivity (PSR sort gate): high polyreactivity

QVQLVESGGGLVQAGGSLRLSCAASGINFKGNAMGWYRQAPGKERELVATISSGGTTNYADSVKGRFTISRDNAKNTVYLQMNSLKPEDTAVYYCAKRGYYRSRRYDYWGQGTQVTVSS
polyreactivity (PSR sort gate): high polyreactivity

QVQLVESGGGLVQAGGSLRLSCAASGINFKRYAMGWYRQAPGKESELVATINRDGRTSYADSVKGRFTISRDNAKNTVYLQMNSLKQEDTAVYYFNKRGTYATPTPGNLFDYWGQGTLVTVSS
polyreactivity (PSR sort gate): low polyreactivity

QVQLVESGGGLVQAGGSLRLSCAASGINFSPYAMGWYRQAPGKERELVAAISYSGGSTYYADSVKGRFTISRDNAKNTVYLQMNSLKPEDTAVYYCAVVYSYYLAVLGYWDYDYWGQGTQVTVSS
polyreactivity (PSR sort gate): low polyreactivity

QVQLVESGGGLVQAGGSLRLSCAASGINFVGYAMGWYRQAPGKERELVAAISTSSRTYYADSVKGRFTISRDNAKITVYLHMNSLKPDDTAVYYCNARGTRWYYRHDYWGQGTQVTVSS
polyreactivity (PSR sort gate): high polyreactivity

QVQLVESGGGLVQAGGSLRLSCAASGINFYYNAMGWYRQAPGKERELVATISWSDTSTYYADSVKGRFTISRDNAKNTVFLQMNSLKPEDTAGYYCATDGRETWLPEYYWGQGTQVTVSS
polyreactivity (PSR sort gate): low polyreactivity

QVQLVESGGGLVQAGGSLRLSCAASGIPRNTMGWYRQAPGKERELVASISTSGGSTYYADSVKGRFTISLDNAKKTVYLQMNSLKPEDTAVYYCAKKAYASRYFIYDYWGQGTQVTVSS
polyreactivity (PSR sort gate): low polyreactivity

QVQLVESGGGLVQAGGSLRLSCAASGISFSQYARGWYRQAPGKERELVAAISGSGGDTYYADSVKGRFTISRDNAKNTVYLQMNSLKPEDTAVYYCNADYESVYYEDYDYWGQGTQVTVSS
polyreactivity (PSR sort gate): low polyreactivity

QVQLVESGGGLVQAGGSLRLSCAASGISYTSYAMGWYRQAPGKERELVAAISSSGGSTYYADSVKGRFTISRDNAKNTVYLQMNSLKPEDTAVYYCIARPRSRSPRVEYDYWGQGTQVTVSS
polyreactivity (PSR sort gate): high polyreactivity

QVQLVESGGGLVQAGGSLRLSCAASGITFAENAMGWFRQAPGKERELVAAISGSGVDTYYADSVKGRFTISRDNAKNPVYLQMNSVKPEDTAVYYSNAVYYRSSYPSGRYGMDYWGQGTQVTVSS
polyreactivity (PSR sort gate): high polyreactivity

QVQLVESGGGLVQAGGSLRLSCAASGITFARYAMAWYRPAPGKERELVAAISKRGGRTYYADSVKGRFTISRDNAKNTFYLQMNSLKPEDTAVYYCATDYYVSTDYNYWGQGTQVTLSS
polyreactivity (PSR sort gate): high polyreactivity

QVQLVESGGGLVQAGGSLRLSCAASGITFASNTMGWYRQAPGKERELVAAITRGDNTYYADSVKGRFTISRDNAKNTVYLQMNSLKPEDTSVYYCATEGYQIQYEHDYWGQGTQVTVSS
polyreactivity (PSR sort gate): low polyreactivity

QVQLVESGGGLVQAGGSLRLSCAASGITFATNAMGWYRQAPGKERDLVAGITSGGSTYYADSVKGRFTISRDNAKNTVYLQMNSLKPEDTAVYYCAKRYHYWYGTGYDYWGQGTQVTVSS
polyreactivity (PSR sort gate): low polyreactivity

QVQLVESGGGLVQAGGSLRLSCAASGITFAYYAMGWYRQAPGKERELVAAIRWSGGDTYYADSVKGRFTISRDNAKNTVYLQMNSLKPEDTAVYYCAADTTWGYDYWGQGTQVTVSS
polyreactivity (PSR sort gate): low polyreactivity

QVQLVESGGGLVQAGGSLRLSCAASGITFAYYAMGWYRQAPGKERELVAVITSGGRTNYADSVKGRFTISRDNAKNTVYLQMNSLKPEDTAVYYCAAYRSSKTLRLGYYYWGQGTQVTVSS
polyreactivity (PSR sort gate): high polyreactivity

QVQLVESGGGLVQAGGSLRLSCAASGITFCYNTMGWYRQAPGKERELVAAISGSGGRTYYADSVKGRFTISRDNAKNTVYLQMNSLKPEDTAVYDCAARWQIWSSLYDYWGQGTQVTVSS
polyreactivity (PSR sort gate): high polyreactivity

QVQLVESGGGLVQAGGSLRLSCAASGITFDDYAMGWYRQAPGKERELVAAISESGDSTYYADSVKGRFTISRDNAKNTVYFQMNSLKPEDTAVYYCAADSTYYYGWGMYYWGQGTQVTVSS
polyreactivity (PSR sort gate): high polyreactivity

QVQLVESGGGLVQAGGSLRLSCAASGITFDDYDMGWYIQAPGKEREFVAAISFSGSSTYYADSVKGRFTISRDNAKNTVYLQMNSLKPEDTAVYYCAAVTTGTITSKYNYWGQGTQVTVSS
polyreactivity (PSR sort gate): low polyreactivity

QVQLVESGGGLVQAGGSLRLSCAASGITFDDYDMGWYRQAPGKERELVAAISWSGGSTYYADSVKGRFTISRDNAKTTVYLQMNSLKPEDTAVYYCAAEVIWWVREYYYWGQGTQVTVSS
polyreactivity (PSR sort gate): low polyreactivity
